Experiments:
[1] = target: T1, PDGF-AB (Homo sapiens, UniProt P04085;P01127 P04085:87-211,P01127:82-190); assay: filter; +/-0.011; high affinity component; PBSM, 37 C; conditions: tags: R&D Systems, E. coli; label: 5'-32P; three-way helix junction
Method: (§1) The fraction of ³²P 5′ nd-labeled DNA ligands bound to varying concentrations of PDGF was determined by the nitrocellulose filter binding method. Minimal ligands tested were 20t (o), 36t (Δ), and 41t (□). Oligonucleotide concentrations in these experiments were ≈10 pM (PDGF-AB and PDGF-BB) and ≈50 pM (PDGF AA). Data points were fitted to eq. 1 (for binding of the DNA ligands to PDGF-AA) or to eq. 2 (for binding to PDGF AB and BB) using the non-linear least squares method. Binding reactions were done at 37° C. in binding buffer (PBSM with 0.01% HSA).
(§2) The binding of ssDNA ligands at low concentrations to varying concentrations of PDGF was determined by the nitrocellulose filter binding method as described (Green et al., (1995) Chemistry and Biology 2:683-695). The concentrations of PDGF stock solutions (in PBS) were determined from the absorbance readings at 280 nm using the following e₂₈₀ values calculated from the amino acid sequences (Gill, S.C. and von Hippel, P. H. (1989) Anal. Biochem. 182:319-326): 19,500 M⁻¹cm⁻¹ for PDGF-AA, 15,700 M⁻¹cm⁻¹ for PDGF-AB and 11,800 M⁻¹cm⁻¹ for PDGF-BB. ssDNA for all binding experiments were purified by electrophoresis on 8% (>80 nucleotides) or 12% (<40 nucleotides) polyacrylamide/7 M urea gels. All ssDNA ligands were heated at 90° C. in binding buffer at high dilution (1 μM) for 2 min and cooled on ice prior to further dilution into the protein solution. The binding mixtures were typically incubated for 15 min at 37° C. before partitioning on nitrocellulose filters.
(§3) ^aData points shown in FIG. 5A were fitted to eq 1 (Example 7). ^bData points in FIGS. 5B and 5C were fitted to eq. 2.

[2] = target: T2, PDGF-BB (Homo sapiens, UniProt P01127 P01127:82-190); assay: filter; +/-0.031; high affinity component; PBSM, 37 C; conditions: tags: R&D Systems, E. coli; chain copies: 2 (inferred); label: 5'-32P; three-way helix junction
Method: as §1, §3

[3] = target: T3, PDGF-AA (Homo sapiens, UniProt P04085 P04085:87-211); assay: filter; +/-4; PBSM, 0.01% HSA, 37 C; comparable to random DNA; conditions: tags: R&D Systems, E. coli, long form of A-chain; chain copies: 2 (inferred); label: 5'-32P; three-way helix junction
Method: as §1
as §2, with “All ssDNA ligands were heated at 90° C. in binding buffer at high dilution (1 μM) for 2 min and cooled on ice prior to further dilution into the protein solution. The binding mixtures were typically incubated for 15 min at 37° C. before partitioning on nitrocellulose filters.” left out

[4] = target: T4, TGFβ1 (Homo sapiens, UniProt P01137 P01137:279-390); assay: filter; 37 C; cell IC50 49 nM; conditions: tags: Genentech; biotinylated version used in bead assay; chain copies: 2
[5] = target: T4, TGFβ1; assay: cell_activity; conditions: tags: Genentech or R&D Systems; chain copies: 2
Method: MLEC-Pail/luc cells were plated at 3.2×10⁴ cells per well in a 96 well Falcon plate, in 100 μl of DME+10% fetal bovine serum overnight. Media was made from autoclaved water. The cells were washed three times ([…]) in serum free DME plus Solution A (1:1). Solution A is 30 mM Hepes pH 7.6, 10 mM glucose, 3.0 mM KCl, 131 mM NaCl, 1.0 mM disodium phosphate. Samples (100 μl) were added in DME containing 20 mM Hepes pH 7.5, and 0.1% BSA (Fluka, radioimmunoassay grade). All samples were in triplicate. After six hours at 37° C. in a 5% CO₂ incubator the media was removed and cells were washed three times (100 μl each) in cold PBS. Lysis buffer (75 μl) (Analytical Luminescence Laboratory) was added and the plates incubated on ice for 20 min. The plates were sealed and frozen at −80° C. until assayed. Samples (25 μl) were assayed for luciferase activity with the Enhanced Luciferase Assay Kit from Analytical Luminescence Laboratory (San Diego, Calif., USA) according to the manufacturer's instructions using the Berthold Microlumat LB96P luminometer.
Ligands tested for inhibition of TGFβ1 activity were tested at a minimum of five concentrations. The ligands were serially diluted in DME, 20 mM Hepes pH 7.5, 0.1% Fluka BSA in polypropylene tubes and an equal volume of media containing 12 pM TGFβ1 was added to each tube, vortexed and transferred to the cells without further incubation.

[6] = target: T2, PDGF-BB; assay: filter; +/-0.009; high affinity component; PBSM, 37 C; conditions: tags: R&D Systems, E. coli; chain copies: 2 (inferred); label: 5'-32P; three-way helix junction
Method: as §1
as §2, with “All ssDNA ligands were heated at 90° C. in binding buffer at high dilution (1 μM) for 2 min and cooled on ice prior to further dilution into the protein solution. The binding mixtures were typically incubated for 15 min at 37° C. before partitioning on nitrocellulose filters.” left out

[7] = target: T3, PDGF-AA; assay: filter; +/-12; PBSM, 37 C; comparable to random DNA; conditions: tags: R&D Systems, E. coli, long form of A-chain; chain copies: 2 (inferred); label: 5'-32P; three-way helix junction
Method: as §1
as §2, with “All ssDNA ligands were heated at 90° C. in binding buffer at high dilution (1 μM) for 2 min and cooled on ice prior to further dilution into the protein solution. The binding mixtures were typically incubated for 15 min at 37° C. before partitioning on nitrocellulose filters.” left out

[8] = target: T2, PDGF-BB; assay: filter; +/-0.011; high affinity component; PBSM, 37 C; conditions: tags: R&D Systems, E. coli; chain copies: 2 (inferred); label: 5'-32P; three-way helix junction
Method: as §1, §2, §3

[9] = target: T3, PDGF-AA; assay: filter; +/-8; PBSM, 37 C; comparable to random DNA; conditions: tags: R&D Systems, E. coli, long form of A-chain; chain copies: 2 (inferred); label: 5'-32P; three-way helix junction
Method: as §1
as §2, with “All ssDNA ligands were heated at 90° C. in binding buffer at high dilution (1 μM) for 2 min and cooled on ice prior to further dilution into the protein solution. The binding mixtures were typically incubated for 15 min at 37° C. before partitioning on nitrocellulose filters.” left out

[10] = target: T1, PDGF-AB; assay: filter; +/-0.009; high affinity component; PBSM, 37 C; conditions: tags: R&D Systems, E. coli; label: 5'-32P; three-way helix junction
Method: as §1
as §2, with “All ssDNA ligands were heated at 90° C. in binding buffer at high dilution (1 μM) for 2 min and cooled on ice prior to further dilution into the protein solution. The binding mixtures were typically incubated for 15 min at 37° C. before partitioning on nitrocellulose filters.” left out

[11] = target: T1, PDGF-AB; assay: filter; thrombin aptamer control; conditions: tags: R&D Systems, E. coli; stem-loop
Method: as §2

[12] = target: T1, PDGF-AB; assay: filter; +/-34; high affinity component of biphasic binding; conditions: tags: R&D Systems, E. coli
Method: (§4) Briefly, the 2′-fluoro-2′-deoxypyrimidine RNA for affinity selections was prepared by in vitro transcription from synthetic DNA templates using T7 RNA polymerase (Milligan et al., Nucl. Acids Res. 15:8783 (1987)). The conditions for in vitro transcription described in detail previously (Jellinek et al., (1994) supra) were used, except that higher concentration (3 mM) of the 2′-fluoro-2′-deoxypyrimidine nucleoside triphosphates (2′-F-UTP and 2′-F-CTP) was used compared to ATP and GTP (1 mM). Affinity selections were done by incubating PDGF AB with 2′-fluoro-2′-deoxypyrimidine RNA for at least 15 min at 37° C. in PBS containing 0.01% human serum albumin. Partitioning of free RNA from protein-bound RNA was done by nitrocellulose filtration as described (Jellinek et al., (1993, 1994) supra). Reverse transcription of the affinity-selected RNA and amplification by PCR were done as described previously (Jellinek et al., (1994) supra). […] The affinity-enriched pool (round 19) was cloned and sequenced as described (Schneider et al., (1992) supra). The unique-sequence ligands were screened for their ability to bind PDGF AB with high affinity.

[13] = target: T1, PDGF-AB; assay: filter; +/-38; high affinity component of biphasic binding; conditions: tags: R&D Systems, E. coli
Method: as §4

[14] = target: T4, TGFβ1; assay: filter; 37 C; cell IC50 17 nM; conditions: tags: Genentech; biotinylated version used in bead assay; chain copies: 2

T4 sequence (P01137 279-390, one chain of several): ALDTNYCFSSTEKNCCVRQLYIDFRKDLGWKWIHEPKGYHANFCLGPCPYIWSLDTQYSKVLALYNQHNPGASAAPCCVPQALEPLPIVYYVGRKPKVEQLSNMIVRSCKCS
T1 sequence (P01127 82-190, chain 2 of 2, other chains not shown): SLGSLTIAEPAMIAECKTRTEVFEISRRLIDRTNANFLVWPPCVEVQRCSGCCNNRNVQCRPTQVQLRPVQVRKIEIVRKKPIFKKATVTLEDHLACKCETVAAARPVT
T2 sequence (P01127 82-190, one chain of several): as the sequence (P01127 82-190, chain 2 of 2, other chains not shown) above

B1: 20t (ssDNA)
DNA: TGGGAGGGCGCGTTCTTCGTGGTTACTTTTAGTCCCGT
modifications: 3'-3' linked T at 3' end
Q: Which results are given for B1?
A: Kd [1]: 0.147 nM; Kd [2]: 0.127 nM; Kd [3]: 47 nM

B2: lib5-5 (ssRNA)
RNA: GGGGGAGAACGCGGAUCCGAGCAAUCCCAGGCGCAUAGCUUCCGAGUAGACAGGAGGGAGGGGUGGAUGUGGCGUCUCGAGGAAGCUUCGCUCUAGAUCUCCCUUUAGUGAGGGUUA
modifications: 2'-NH2 pyrimidines
Q: What does the source list for B2?
A: Kd [4]: 2.4 nM; IC50 [5]: 49 nM

B3: 36t (ssDNA)
DNA: CACAGGCTACGGCACGTAGAGCATCACCATGATCCTGTGT
modifications: 3'-3' linked T at 3' end
Q: Which results are given for B3?
A: Kd [1]: 0.094 nM; Kd [6]: 0.093 nM; Kd [7]: 72 nM

B4: 41t (ssDNA)
DNA: TACTCAGGGCACTGCAAGCAATTGTGGTCCCAATGGGCTGAGTAT
modifications: 3'-3' linked T at 3' end
Q: With B4 as the binder, how does the Kd [8] read?
A: The Kd was 0.129 nM.

Q: And the Kd [9]?
A: Its Kd is 49 nM.

Q: What about the Kd [10] of the same binder?
A: The Kd was 0.138 nM.

B5: T39 (ssDNA)
DNA: CAGTCCGTGGTAGGGCAGGTTGGGGTGACTTCGTGGAAT
modifications: 3'-3' linked T at 3' end
Q: Which Kd [11] does the source give for B5 here?
A: The Kd was 230 nM.

B6: PDGF 2'-F clone 16 (ssRNA)
RNA: GGGAGACAAGAAUAACGCUCAACGAACGAGGAGGGAGUGGCAAGGGAUGGUUGGAUAGGCUCUACGCUCAUUCGACAGGAGGCUCACAACAGGC
modifications: 2'-F pyrimidines
Q: For B6, which Kd [12] is on record?
A: Its Kd is 0.116 nM.

B7: PDGF 2'-F clone 23 (ssRNA)
RNA: GGGAGACAAGAAUAACGCUCAAUCGAUCGGUUGUGUGCCGGACAGCUUUGACCAUGAGCUGGGACCGAGGCCUUCGACAGGAGGCUCACAACAGGC
modifications: 2'-F pyrimidines
Q: How did the Kd [13] turn out when B7 was run?
A: The Kd was 0.173 nM.

B8: lib5-7 (ssRNA)
RNA: GGGGGAGAACGCGGAUCCGAGCAAGCCCUGGCAUAGCUUCCGAGUAGACAGGAGGGAGGGGUGGAUGUGGCGUCUACUCGGUGUCGUGAAGCUUCGCUCUAGAUCUCCCUUUAGUGAGGGUUA
modifications: 2'-NH2 pyrimidines
Q: How did the IC50 [5] turn out when B8 was run?
A: Its IC50 is 17 nM.

Q: What about the Kd [14] of the same binder?
A: The Kd was 3.4 nM.

Reference: patent publication US20030180744, “High affinity oligonucleotide ligands to growth factors” (GILEAD SCIENCES, INC., published 2003)
